# Patent US20260124314A1, “ANTl-5T4 ANTIGEN BINDING DOMAINS, ANTIBODY-DRUG CONJUGATES AND METHODS OF USE THEREOF” (Salubris Biotherapeutics, Inc., priority 2023, published 2026)
# T1: recombinant human 5T4 protein (human, UniProt Q13641 32-355)
# T1 construct: The ELISA protein was bought (Sino biologics and Biorbyt); also called recombinant 5T4 protein; trophoblast glycoprotein (TPBG)
# T1 sequence: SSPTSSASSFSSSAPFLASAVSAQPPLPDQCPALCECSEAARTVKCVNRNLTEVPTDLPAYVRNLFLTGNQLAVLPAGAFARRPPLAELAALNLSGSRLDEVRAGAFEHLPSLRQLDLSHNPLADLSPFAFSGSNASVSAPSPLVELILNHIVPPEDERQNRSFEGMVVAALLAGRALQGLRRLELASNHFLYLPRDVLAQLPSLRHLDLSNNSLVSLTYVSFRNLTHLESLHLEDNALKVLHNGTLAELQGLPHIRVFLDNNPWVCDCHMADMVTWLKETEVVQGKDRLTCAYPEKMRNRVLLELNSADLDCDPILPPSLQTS
# T2: FcγRIIa (UniProt P12318 34-218, limits assumed)
# T2 construct: also called Fc gamma receptor IIa
# T2 sequence (looked up): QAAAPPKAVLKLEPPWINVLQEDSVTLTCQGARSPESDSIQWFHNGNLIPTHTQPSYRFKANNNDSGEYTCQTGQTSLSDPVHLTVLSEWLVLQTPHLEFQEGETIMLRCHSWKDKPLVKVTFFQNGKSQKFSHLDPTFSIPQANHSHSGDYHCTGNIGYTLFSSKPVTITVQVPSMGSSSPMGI
# T3: FcγRIIb (UniProt P31994 43-217, limits assumed)
# T3 construct: also called Fc gamma receptor IIb
# T3 sequence (looked up): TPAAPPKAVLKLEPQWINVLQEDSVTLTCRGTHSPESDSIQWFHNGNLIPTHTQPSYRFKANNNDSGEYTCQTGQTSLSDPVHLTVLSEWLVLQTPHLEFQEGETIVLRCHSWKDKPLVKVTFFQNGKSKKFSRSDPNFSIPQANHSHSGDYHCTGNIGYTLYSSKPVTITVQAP
# T4: FcγRIIa (Homo sapiens, UniProt P12318)
# T4 construct: purchased Sino Biological
# T4 sequence (P12318 34-317): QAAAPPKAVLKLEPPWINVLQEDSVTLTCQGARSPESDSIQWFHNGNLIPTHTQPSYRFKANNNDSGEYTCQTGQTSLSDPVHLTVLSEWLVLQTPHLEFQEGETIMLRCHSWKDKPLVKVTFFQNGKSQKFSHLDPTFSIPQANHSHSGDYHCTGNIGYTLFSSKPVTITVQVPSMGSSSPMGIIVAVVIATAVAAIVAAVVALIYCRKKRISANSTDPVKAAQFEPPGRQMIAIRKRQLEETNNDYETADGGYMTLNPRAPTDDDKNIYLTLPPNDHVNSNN
# T5: FcγRIIb (Homo sapiens, UniProt P31994)
# T5 construct: purchased Sino Biological
# T5 sequence (P31994 43-310): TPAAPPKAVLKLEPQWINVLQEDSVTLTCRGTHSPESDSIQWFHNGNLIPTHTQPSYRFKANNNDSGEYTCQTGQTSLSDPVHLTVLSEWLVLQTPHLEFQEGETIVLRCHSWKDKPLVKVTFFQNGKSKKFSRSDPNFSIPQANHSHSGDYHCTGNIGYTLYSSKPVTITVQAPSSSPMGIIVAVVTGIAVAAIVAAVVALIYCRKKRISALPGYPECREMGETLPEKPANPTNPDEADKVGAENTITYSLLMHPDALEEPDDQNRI
# What was measured:
# FcγRIIIa (158V) [1] = biological target: T6, FcγRIIIa (158V) (UniProt P08637 17-208); experiment: SPR (Biacore 8K), antibody captured on Protein A chip, Fc receptor as analyte
# T6 construct: 158 is usually counted on the mature protein (176 on the precursor); also called Fc gamma receptor IIIa
# T6 sequence (P08637 17-208 F176V): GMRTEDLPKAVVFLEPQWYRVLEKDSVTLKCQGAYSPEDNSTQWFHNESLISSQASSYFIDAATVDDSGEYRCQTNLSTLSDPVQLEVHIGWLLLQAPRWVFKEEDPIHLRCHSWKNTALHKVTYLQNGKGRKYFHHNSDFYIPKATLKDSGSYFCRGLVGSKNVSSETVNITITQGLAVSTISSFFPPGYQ
# Description: (§1) A total of 5 Fc receptors, including FcγRI (Abcam), FcγRIIa, FcγRIIb, FcγRIIIa (158V), and FcγRIIIb (Sino Biological), were analyzed. […] SPR kinetic experiments were performed on Biacore 8K systems (GE Healthcare) with HBS-EP+ as running buffer. […] Capture level for each ligand was maintained between 50-100RU. […] After each binding cycle, the sensor chip was regenerated with glycine solution, pH 1.5. The resulting sensorgrams were fitted with a one-to-one binding model to extract kinetic constants using Biacore 8K Evaluation Software.
# FcγRIIIb [2] = biological target: T7, FcγRIIIb (UniProt O75015 17-200, limits assumed); experiment: as above
# T7 construct: also called Fc gamma receptor IIIb
# T7 sequence (O75015 17-200 limits assumed): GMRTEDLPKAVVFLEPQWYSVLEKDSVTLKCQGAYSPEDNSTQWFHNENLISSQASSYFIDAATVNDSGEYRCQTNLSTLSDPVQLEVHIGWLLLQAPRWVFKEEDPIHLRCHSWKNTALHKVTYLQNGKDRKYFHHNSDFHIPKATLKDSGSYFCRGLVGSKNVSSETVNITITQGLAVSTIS
# Description: as §1
# [3] = biological target: T1, recombinant human 5T4 protein; experiment: SPR (Biacore 8K), antibody captured on Protein A chip, 5T4 as analyte 0.625-10 nM, 1:1 model
# Description: The binding affinity of anti-5T4 bispecific antibody-drug conjugate monospecific and bispecific antibodies to 5T4 was measured by Biacore kinetic experiments using a Protein A sensor chip on Biacore 8K (Cytiva) with HBS-EP+ as running buffer. […] After each binding cycle, the sensor chip was regenerated with glycine solution, pH 1.5. Signals from reference surface and an ensemble of buffer blank injections were subtracted from binding signals to correct for nonspecific binding and injection artifacts. The corrected experimental signals were globally fitted to a 1:1 binding model to extract kinetic constants, including association rate constant (ka), dissociation rate constant (kd), and equilibrium dissociation constant (KD), using the Biacore 8K Evaluation Software.
# FcγRI (Abcam) = biological target: T8, FcγRI (Abcam) (UniProt P12314 16-288, limits assumed); experiment: SPR (Biacore 8K), antibody captured on Protein A chip, Fc receptor as analyte, 1:1 model
# T8 construct: also called Fc gamma receptor I
# T8 sequence (P12314 16-288 limits assumed): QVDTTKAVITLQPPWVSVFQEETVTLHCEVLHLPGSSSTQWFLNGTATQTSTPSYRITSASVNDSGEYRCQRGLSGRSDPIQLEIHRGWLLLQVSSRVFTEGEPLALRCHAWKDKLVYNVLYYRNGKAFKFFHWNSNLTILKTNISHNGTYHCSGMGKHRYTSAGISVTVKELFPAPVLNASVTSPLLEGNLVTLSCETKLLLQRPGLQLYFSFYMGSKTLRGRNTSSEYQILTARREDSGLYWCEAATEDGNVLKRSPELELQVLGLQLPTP
# Description: as §1
# FcγRIIa [4] = biological target: T2, FcγRIIa; experiment: as above
# Description: as §1
# FcγRIIb [5] = biological target: T3, FcγRIIb; experiment: as above
# Description: as §1
# FcγRIIIb [6] = biological target: T9, FcγRIIIb (Homo sapiens, UniProt O75015); experiment: FcγR binding activity, Biacore SPR; conditions: antibody captured on protein A chip, receptor 0.41 nM to 100 nM
# T9 construct: purchased Sino Biological
# T9 sequence (O75015 17-200): as the sequence (O75015 17-200 limits assumed) above
# Description: (§2) Site mutations (L234F and S239C) in the Fc region of anti-5T4 bispecific antibody-drug conjugates were designed to mitigate potential side effects which could be caused by the antibody effector function. To confirm the mutations had the intended effect of reducing Fc receptor binding activities, the affinities between an anti-5T4 bispecific antibody with Fc mutations and an array of Fc receptors were evaluated by Biacore assay. A total of 5 Fc receptors, including FcγRI (Abcam), FcγRIIa, FcγRIIb, FcγRIIIa (158V), and FcγRIIIb (Sino Biological), were analyzed. One parental anti-5T4 Antibody (Ab1) without Fc mutations, was used as a positive control for FcR binding. SPR kinetic experiments were performed on Biacore 8K systems (GE Healthcare) with HBS-EP+ as running buffer. Antibodies were captured in the active flow cell of a protein A sensor chip (Cytiva). Capture level for each ligand was maintained between 50-100RU. For kinetic analysis, each receptor was serially diluted to 6 different concentrations, ranging from 0.41 nM to 100 nM, and the serial dilutions were injected sequentially over both reference and active flow cells in each single channel. After each binding cycle, the sensor chip was regenerated with glycine solution, pH 1.5. The resulting sensorgrams were fitted with a one-to-one binding model to extract kinetic constants using Biacore 8K Evaluation Software.
# (§3) Site mutations (L234F, S239C and N434A) in the Fc region of the Bs3-HL biparatopic antibody are designed to mitigate potential side effects caused by the antibody effector function.
# FcγRIIa [7] = biological target: T4, FcγRIIa; experiment: FcγR binding activity, Biacore SPR; conditions: antibody captured on protein A chip, receptor 0.41 nM to 100 nM
# Description: as §2, §3
# FcγRIIb [8] = biological target: T5, FcγRIIb; experiment: FcγR binding activity, Biacore SPR; conditions: antibody captured on protein A chip, receptor 0.41 nM to 100 nM
# Description: as §2, §3
# FcγRI = biological target: T10, FcγRI (Homo sapiens, UniProt P12314); experiment: FcγR binding activity, Biacore SPR; conditions: antibody captured on protein A chip, receptor 0.41 nM to 100 nM
# T10 construct: purchased Abcam
# T10 sequence (P12314 16-374): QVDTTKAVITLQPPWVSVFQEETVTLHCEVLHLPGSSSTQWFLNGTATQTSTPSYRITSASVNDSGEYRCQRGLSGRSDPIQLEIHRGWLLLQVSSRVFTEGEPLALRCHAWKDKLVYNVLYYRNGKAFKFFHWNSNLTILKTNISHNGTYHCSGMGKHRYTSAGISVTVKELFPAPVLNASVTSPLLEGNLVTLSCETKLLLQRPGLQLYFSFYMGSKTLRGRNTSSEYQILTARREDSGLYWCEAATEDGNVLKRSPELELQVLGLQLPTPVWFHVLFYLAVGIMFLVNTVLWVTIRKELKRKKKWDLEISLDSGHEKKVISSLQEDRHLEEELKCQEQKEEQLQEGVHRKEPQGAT
# Description: (§4) A total of 5 Fc receptors, including FcγRI (Abcam), FcγRIIa, FcγRIIb, FcγRIIIa (158V), and FcγRIIIb (Sino Biological), were analyzed. One parental anti-5T4 Antibody (Ab1) without Fc mutations, was used as a positive control for FcR binding. SPR kinetic experiments were performed on Biacore 8K systems (GE Healthcare) with HBS-EP+ as running buffer. […] Capture level for each ligand was maintained between 50-100RU. […] After each binding cycle, the sensor chip was regenerated with glycine solution, pH 1.5. The resulting sensorgrams were fitted with a one-to-one binding model to extract kinetic constants using Biacore 8K Evaluation Software.
# FcγRIIIa (158V) [9] = biological target: T11, FcγRIIIa (158V) (Homo sapiens, UniProt P08637, F176V); experiment: FcγR binding activity, Biacore SPR; conditions: antibody captured on protein A chip, receptor 0.41 nM to 100 nM
# T11 construct: purchased Sino Biological
# T11 sequence (P08637 17-208 F176V limits assumed): as the sequence (P08637 17-208 F176V) above
# Description: as §4
Kd [3] [nM],Kd (FcγRI (Abcam)) [nM],Kd (FcγRIIa [4]) [nM],Kd (FcγRIIb [5]) [nM],KD for binding to FcγRIIIb (FcγRIIIb [6]),Kd (FcγRIIa [7]) [nM],Kd (FcγRIIb [8]) [nM],Kd (FcγRI) [nM],Kd (FcγRIIIa (158V) [9]) [nM],Molecule,binding result (FcγRIIIa (158V) [1]),binding result (FcγRIIIb [2])
0.775,39.6,91.5,116,–,–,–,–,–,"Bs3-HL-FCA biparatopic anti-5T4 antibody (Bs3 with the scFv in the VH-VL orientation and the L234F, S239C and N434A mutations) (bispecific antibody, human IgG1, kappa, also called 5T4-Bs3- FCA; BsAb with the FCA mutations) heavy: QVQLVQSGAEVKKPGASVKVSCKASGYSFTDYYMHWVRQAPGQGLEWMGRVSPNNGATNTNQKFKDRVTMTRDTSISTAYMELRSLRSEDTAVYYCARSTMITSYYFDYWGQGTLVTVSSASTKGPSVFPLAPSSKSTSGGTAALGCLVKDYFPEPVTVSWNSGALTSGVHTFPAVLQSSGLYSLSSVVTVPSSSLGTQTYICNVNHKPSNTKVDKRVEPKSCDKTHTCPPCPAPEFLGGPCVFLFPPKPKDTLMISRTPEVTCVVVDVSHEDPEVKFNWYVDGVEVHNAKTKPREEQYNSTYRVVSVLTVLHQDWLNGKEYKCKVSNKALPAPIEKTISKAKGQPREPQVYTLPPSREEMTKNQVSLTCLVKGFYPSDIAVEWESNGQPENNYKTTPPVLDSDGSFFLYSKLTVDKSRWQQGNVFSCSVMHEALHAHYTQKSLSLSPGKGGGGSGGGGSGGGGSEVQLLESGGGLVQPGGSLRLSCAASGFDFSRYWMTWVRQAPGKCLEWVSEINPDSRTINYTPSLKDRFTISRDNAKNTLYLQMNSLRAEDTAVYYCARPDHDYNPYYFNYWGQGTTVTVSSGGGGSGGGGSGGGGSGGGGSDIVLTQSPASLAVSLGQRATISCRPSQSVSTSSNSYIHWYQQKPGQPPKLLIKYASNLESGVPARFSGSGSGTDFTLTISPVEAEDTATYYCQQSWEIPLTFGCGTKLEIK light: DIVMTQSPSFLSVSVGDRVTITCKASQSVSTDVAWYQQKPGQAPKLLIYFASDRYTGVPDRFSGSGSGTDFTFTISSLQAEDVAVYYCQQDYSSPPTFGGGTKLEIKRTVAAPSVFIFPPSDEQLKSGTASVVCLLNNFYPREAKVQWKVDNALQSGNSQESVTEQDSKDSTYSLSSTLTLSKADYEKHKVYACEVTHQGLSSPVTKSFNRGEC",no binding (tested: receptor 0.41 nM to 100 nM),no binding (tested: receptor 0.41 nM to 100 nM)
–,–,–,–,No binding,98.6,111,3.73,50.5,"Parental Ab1 without Fc mutations: parental anti-5T4 Antibody (Ab1) without Fc mutations, used as a positive control for FcR binding (antibody, V domains shown) VH: QVQLVQSGAEVKKPGASVKVSCKASGYSFTDYYMHWVRQAPGQGLEWMGRVSPNNGATNTNQKFKDRVTMTRDTSISTAYMELRSLRSEDTAVYYCARSTMITSYYFDYWGQGTLVTVSS VL: DIVMTQSPSFLSVSVGDRVTITCKASQSVSTDVAWYQQKPGQAPKLLIYFASDRYTGVPDRFSGSGSGTDFTFTISSLQAEDVAVYYCQQDYSSPPTFGGGTKLEIK",–,–
